Measurements from paper doi:10.1101/2021.05.05.442812 (bioRxiv, 2021).

Assays:
[1] = target: β subunit of E. coli RNAP (E. coli, UniProt P0A8V2 1-1342); assay: cryo-EM structure
[2] = target: β’ subunit of E. coli RNAP (E. coli, UniProt P0A8T7 1-1407); assay: cryo-EM structure
Chain of β’ subunit of E. coli RNAP (P0A8T7 whole entry): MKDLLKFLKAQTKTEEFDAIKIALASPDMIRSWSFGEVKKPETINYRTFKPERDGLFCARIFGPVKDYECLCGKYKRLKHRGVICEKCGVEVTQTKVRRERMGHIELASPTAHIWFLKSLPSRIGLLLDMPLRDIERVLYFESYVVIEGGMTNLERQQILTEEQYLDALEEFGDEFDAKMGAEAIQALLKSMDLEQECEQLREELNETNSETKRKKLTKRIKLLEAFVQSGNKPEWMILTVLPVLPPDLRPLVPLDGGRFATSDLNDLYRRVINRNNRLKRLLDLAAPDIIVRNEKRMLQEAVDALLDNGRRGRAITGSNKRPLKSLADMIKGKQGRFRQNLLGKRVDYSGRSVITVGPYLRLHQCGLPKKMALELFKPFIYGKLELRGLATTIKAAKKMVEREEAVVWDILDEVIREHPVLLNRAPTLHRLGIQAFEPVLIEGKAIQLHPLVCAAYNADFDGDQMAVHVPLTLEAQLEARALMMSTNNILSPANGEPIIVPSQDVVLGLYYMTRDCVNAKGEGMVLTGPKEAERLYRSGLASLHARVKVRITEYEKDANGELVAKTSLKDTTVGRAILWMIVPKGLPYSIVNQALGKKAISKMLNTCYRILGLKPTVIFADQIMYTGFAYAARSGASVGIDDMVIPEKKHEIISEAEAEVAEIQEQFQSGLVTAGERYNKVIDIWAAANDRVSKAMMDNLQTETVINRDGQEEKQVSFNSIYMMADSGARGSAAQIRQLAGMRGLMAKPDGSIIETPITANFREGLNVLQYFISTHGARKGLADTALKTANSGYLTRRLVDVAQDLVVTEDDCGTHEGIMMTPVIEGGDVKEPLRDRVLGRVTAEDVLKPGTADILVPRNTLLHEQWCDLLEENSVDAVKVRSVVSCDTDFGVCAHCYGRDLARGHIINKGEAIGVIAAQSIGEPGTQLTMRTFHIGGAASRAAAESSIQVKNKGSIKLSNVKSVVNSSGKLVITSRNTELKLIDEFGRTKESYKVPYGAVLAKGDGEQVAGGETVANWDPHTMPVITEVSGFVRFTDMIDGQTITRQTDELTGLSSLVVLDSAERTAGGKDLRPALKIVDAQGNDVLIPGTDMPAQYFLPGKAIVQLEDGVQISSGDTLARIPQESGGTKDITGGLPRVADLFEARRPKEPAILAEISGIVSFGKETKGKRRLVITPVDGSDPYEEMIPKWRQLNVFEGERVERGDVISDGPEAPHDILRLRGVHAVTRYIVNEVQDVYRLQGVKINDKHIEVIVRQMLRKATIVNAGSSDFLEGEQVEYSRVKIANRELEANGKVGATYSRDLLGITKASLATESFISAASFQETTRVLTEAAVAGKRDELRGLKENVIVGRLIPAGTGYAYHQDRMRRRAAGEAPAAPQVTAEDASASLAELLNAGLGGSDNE

Chain of β subunit of E. coli RNAP (P0A8V2 whole entry): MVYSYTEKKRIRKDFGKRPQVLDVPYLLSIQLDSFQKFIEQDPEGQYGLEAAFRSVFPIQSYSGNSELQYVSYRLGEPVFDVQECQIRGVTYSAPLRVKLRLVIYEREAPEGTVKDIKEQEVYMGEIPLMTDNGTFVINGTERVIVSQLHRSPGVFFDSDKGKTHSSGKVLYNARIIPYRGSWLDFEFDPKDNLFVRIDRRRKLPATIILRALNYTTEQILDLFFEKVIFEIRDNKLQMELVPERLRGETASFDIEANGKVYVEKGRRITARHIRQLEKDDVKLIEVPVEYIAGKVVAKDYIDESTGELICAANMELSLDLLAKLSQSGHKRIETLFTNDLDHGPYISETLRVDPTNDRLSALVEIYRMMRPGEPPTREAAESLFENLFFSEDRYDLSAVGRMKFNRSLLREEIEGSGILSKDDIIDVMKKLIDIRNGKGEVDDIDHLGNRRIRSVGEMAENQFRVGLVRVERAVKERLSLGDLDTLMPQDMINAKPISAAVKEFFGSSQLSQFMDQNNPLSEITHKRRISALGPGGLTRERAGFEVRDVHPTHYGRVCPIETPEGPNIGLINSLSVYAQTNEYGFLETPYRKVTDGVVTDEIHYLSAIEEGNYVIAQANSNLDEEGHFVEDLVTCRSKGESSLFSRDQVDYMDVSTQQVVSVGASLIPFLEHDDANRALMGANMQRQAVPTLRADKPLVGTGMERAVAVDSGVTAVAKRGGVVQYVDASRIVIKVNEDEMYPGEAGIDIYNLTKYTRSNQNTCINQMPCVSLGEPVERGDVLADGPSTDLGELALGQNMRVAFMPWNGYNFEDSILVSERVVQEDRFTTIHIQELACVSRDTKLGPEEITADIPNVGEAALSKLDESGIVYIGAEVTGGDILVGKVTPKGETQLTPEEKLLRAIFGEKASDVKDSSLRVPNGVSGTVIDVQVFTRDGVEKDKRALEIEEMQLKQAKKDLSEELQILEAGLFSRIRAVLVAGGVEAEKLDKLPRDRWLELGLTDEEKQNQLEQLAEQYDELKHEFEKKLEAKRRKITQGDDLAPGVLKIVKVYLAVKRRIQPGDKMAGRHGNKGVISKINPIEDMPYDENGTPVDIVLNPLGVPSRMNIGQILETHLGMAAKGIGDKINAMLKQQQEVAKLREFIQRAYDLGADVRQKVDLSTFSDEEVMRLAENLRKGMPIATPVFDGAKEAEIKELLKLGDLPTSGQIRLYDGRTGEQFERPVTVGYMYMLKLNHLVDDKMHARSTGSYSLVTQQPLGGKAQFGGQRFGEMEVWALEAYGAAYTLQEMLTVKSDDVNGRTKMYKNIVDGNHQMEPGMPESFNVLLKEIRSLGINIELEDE

B1: E. coli RapA protein (enzyme, UniProt P60240 1-968, looked up)
chain: MPFTLGQRWISDTESELGLGTVVAVDARTVTLLFPSTGENRLYARSDSPVTRVMFNPGDTITSHDGWQMQVEEVKEENGLLTYIGTRLDTEESGVALREVFLDSKLVFSKPQDRLFAGQIDRMDRFALRYRARKYSSEQFRMPYSGLRGQRTSLIPHQLNIAHDVGRRHAPRVLLADEVGLGKTIEAGMILHQQLLSGAAERVLIIVPETLQHQWLVEMLRRFNLRFALFDDERYAEAQHDAYNPFDTEQLVICSLDFARRSKQRLEHLCEAEWDLLVVDEAHHLVWSEDAPSREYQAIEQLAEHVPGVLLLTATPEQLGMESHFARLRLLDPNRFHDFAQFVEEQKNYRPVADAVAMLLAGNKLSNDELNMLGEMIGEQDIEPLLQAANSDSEDAQSARQELVSMLMDRHGTSRVLFRNTRNGVKGFPKRELHTIKLPLPTQYQTAIKVSGIMGARKSAEDRARDMLYPERIYQEFEGDNATWWNFDPRVEWLMGYLTSHRSQKVLVICAKAATALQLEQVLREREGIRAAVFHEGMSIIERDRAAAWFAEEDTGAQVLLCSEIGSEGRNFQFASHMVMFDLPFNPDLLEQRIGRLDRIGQAHDIQIHVPYLEKTAQSVLVRWYHEGLDAFEHTCPTGRTIYDSVYNDLINYLASPDQTEGFDDLIKNCREQHEALKAQLEQGRDRLLEIHSNGGEKAQALAESIEEQDDDTNLIAFAMNLFDIIGINQDDRGDNMIVLTPSDHMLVPDFPGLSEDGITITFDREVALAREDAQFITWEHPLIRNGLDLILSGDTGSSTISLLKNKALPVGTLLVELIYVVEAQAPKQLQLNRFLPPTPVRMLLDKNGNNLAAQVEFETFNRQLNAVNRHTGSKLVNAVQQDVHAILQLGEAQIEKSARALIDAARNEADEKLSAELSRLEALRAVNPNIRDDELTAIESNRQQVMESLDQAGWRLDALRLIVVTHQ
binding result [1]: binds
binding result [2]: binds
